Test results taken from US20120165265A1, “Calcium Signaling Modulators Involving STIM and ORAI Proteins” (priority 2009, published 2012).
“Also recorded” adds a separate entry of the source.

Tests used:
Type in all cases: cell-based
endogenous CRAC channels = assay: NFAT-luciferase assay in HEK 293T (NFAT-Luc) cells; details: HEK 293T NFAT-luc cells transfected with STIM1 construct; PMA (1 μM) alone; listed as D5
Method: NFAT-luciferase Assays. HEK 293T cells were co-transfected with the indicated constructs and an NFAT reporter gene (firefly luciferase gene C-terminal to 4×-NFAT site from the IL-2 gene). Cotransfection with the Renilla luciferase (pRLTK) gene driven by the TK promoter was used to control for cell number and transfection efficiency. After 12-18 h, cells were treated with a control DMSO solution (mock), PMA (1 μM), or PMA plus TG (1 μM) for 8 h. Assays were performed using the Dual Luciferase Reporter assay system (Promega). For each condition, luciferase activity was measured with 4 samples taken from duplicate wells using a 96-well automated luminometer (Turner Biosystems). Results are represented as the ratio of firefly to Renilla luciferase activity.
Identifying a Minimal Cytosolic Region of STIM1 that Opens the CRAC Channel. To identify the CRAC-activating domain of STIM1, we first tested a series of soluble cytosolic STIM1 fragments for their ability to activate an NFAT-dependent luciferase reporter gene (NFAT-luc). A series of constructs were generated by progressive truncation of the full-length cytosolic region of STIM1 (FIG. 2A; STIM1234-685; CT-STIM1) and were transiently expressed in a HEK 293T cell line containing NFAT-luc. […]

GFP-Orai1 = biological target: T1, GFP-Orai1 (Homo sapiens, UniProt Q96D31); assay: Fluorescence recovery after photobleaching (FRAP) of GFP-Orai1
T1 construct: expressed in transfected cells
Method: Fluorescence Recovery After Photobleaching (FRAP). Inducible HEK 293 cells were transiently transfected with mCh-CAD and maintained with 10 μM LaCl3 to suppress chronic Ca2+ entry. After 15-16 h, eGFP-myc-Orai1 expression was induced with 1 μg/ml tetracycline in medium containing LaCl3. Cells were rinsed with 2 mM Ca2+ Ringer's solution at 24 h post-transfection prior to imaging on the confocal system described above. Prebleach and recovery images were scanned at 488 nm at low power (20 mW Ar laser, 50% power, 6% transmission). A 3-μm strip was bleached at 50% laser power with full transmission for ˜2 s. Bleaching during the recovery period was negligible (<5%). FRAP recovery curves were analyzed with ImageJ (W. S. Rasband, NIH, Bethesda, Md., following a published method in which an empirical formula approximating the one-dimensional solution of the diffusion equation is fitted to the time course of fluorescence recovery within the bleached ROI. An offset was introduced to account for incomplete bleaching. The
where I(t) is the mean intensity within the bleached region at time t, Ib is the intensity immediately after bleaching, If is the intensity after full recovery, w is the width of the bleached region, and D is the effective diffusion coefficient, was fit to the FRAP recovery curves with Igor Pro 5.0 (Wavemetrics) to determine D. Mobility was determined as (If−Ib)/(I0−Ib), where If and Ib are defined as above, and I0 is the initial intensity within the ROI after correction for the loss of whole-cell fluorescence by the bleaching pulse (˜10%).
To test whether CAD also clusters CRAC channels in intact cells, we conducted fluorescence recovery after photobleaching (FRAP) experiments of GFP-Orai1 expressed alone or with CAD in HEK 293 cells. […] In cells co-expressing GFP-Orai1 and CAD, the mobile fraction was unchanged (87±4%) but Orai1 diffusion was slowed by a factor of two (D=0.036±0.006 μm^2/s, n=6).

Orai1 = Orai1 (Homo sapiens, UniProt Q96D31); assay: Whole-cell patch clamp recording of ICRAC in transfected HEK 293 cells; design: expressed in transfected cells; host or cells: HEK 293; details: compared with native ICRAC
Method: Electrophysiology. HEK 293 cells were transfected 8-24 h prior to electrophysiology experiments with STIM1- and Orai1-derived constructs in a 1:1 mass ratio using Lipofectamine 2000. […] ICRAC in cells cultured without LaCl3 was similar to that in cells cultured with LaCl3, but most cells without LaCl3 died soon after break-in.
Currents were recorded using standard whole-cell patch clamp techniques (Prakriya and Lewis, 2001). Pipettes of resistance 2-5 MΩ were filled with an internal solution containing (in mM) 150 Cs aspartate, 8 MgCl2, 10 EGTA, and 10 HEPES (pH 7.2 with CsOH). Currents were sampled at 5 kHz and filtered at 2 kHz, and all voltages were corrected for the junction potential of the pipette solution relative to Ringer's in the bath (−13 mV).
Patch-clamp Experiments. Pipette-membrane seals were formed in 2 mM Ca^2+ Ringer's solution. After break-in to the whole-cell configuration, voltage stimuli consisting of a 100-ms step to −100 mV followed by a 100-ms ramp from −100 to +100 mV were delivered every 5 s from the holding potential of +30 mV. After the currents reached a steady level (˜300 s for wild-type STIM1), the external solution was changed via a multibarrel local perfusion pipette to a high-Ca^2+ Ringer's containing (in mM) 130 NaCl, 4.5 KCl, 20 CaCl2, 1 MgCl2, 10 D-glucose, and 5 HEPES (pH 7.4 with NaOH). All data were leak-corrected using the current elicited in 20 mM Ca^2+ Ringer's+10 μM LaCl3 at the end of the each experiment. LaCl3 and 2-APB were added directly to parent solutions on the day of the experiment from 10 mM and 100 mM stocks in H2O and DMSO, respectively.
As a definitive test for CRAC channel activation, we conducted whole-cell patch clamp recordings from HEK 293 cells transiently transfected with myc-Orai1 and either YFP-STIM1 or YFP-CAD. In cells expressing full length YFP-STIM1, ICRAC appeared over several minutes following break-in, consistent with the typical slow activation seen in response to passive store depletion (FIG. 2D). […] In contrast, inward current was present from the moment of break-in in cells expressing YFP-CAD (FIG. 2E). This current was identified as ICRAC based on its dependence on extracellular Ca^2+, inward rectification, sequential enhancement and inhibition by 2-APB, and inhibition by La^3+ (FIG. 2E and FIG. 10 C, D). ICRAC was not observed at break-in in HEK 293 cells transfected with YFP or YFP-CAD in the absence of Orai1 (FIG. 2F), consistent with the low level of endogenous STIM1 and Orai1 in these cells. […] Inactivation was restored by addition of STIM1 residues carboxy-terminal to CAD.

T1 sequence (Q96D31 whole entry): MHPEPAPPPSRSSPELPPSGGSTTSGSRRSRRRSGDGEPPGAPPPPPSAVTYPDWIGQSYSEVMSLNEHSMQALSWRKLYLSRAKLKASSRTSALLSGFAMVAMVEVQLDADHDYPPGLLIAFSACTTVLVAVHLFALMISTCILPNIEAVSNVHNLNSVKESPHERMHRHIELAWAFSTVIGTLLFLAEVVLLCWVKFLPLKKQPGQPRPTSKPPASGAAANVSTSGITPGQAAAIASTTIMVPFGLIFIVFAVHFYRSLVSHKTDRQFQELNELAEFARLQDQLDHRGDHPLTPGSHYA
Chain of Orai1 (Q96D31 whole entry): as above

CAD: 107-residue CRAC activation domain within the C-terminus of STIM1 (aa 342-448), SEQ ID NO:1
activation of NFAT-dependent luciferase reporter gene (NFAT-luc) (endogenous CRAC channels): active; also recorded: necessary and sufficient to activate NFAT | mobile fraction of GFP-Orai1 (GFP-Orai1; HEK 293 cells co-expressing GFP-Orai1 and CAD): 87±4% | effective diffusion coefficient (D) of GFP-Orai1, mean (GFP-Orai1; HEK 293 cells co-expressing GFP-Orai1 and CAD, n=6): 0.036±0.006 μm^2/s | diffusion coefficient of eGFP-Orai1, single-cell fit (GFP-Orai1; single cell expressing eGFP-Orai1 with CAD (FIG. 6D)): 0.026 μm^2/s | fast Ca2+-dependent inactivation of activated current (Orai1): lacked fast Ca^2+-dependent inactivation
